Reference: the supplement of paper PMC9876800

Tested on: peptide library, one residue held at a place counted from the S/T acceptor
Assay: relative phosphorylation of the sub-library (ratio to the mean residue at this position); higher = residue favoured
Method in brief: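 Human or orthologue kinase constructs, purified and recombinant, were incubated under kinase-specific conditions in 384-well plates with biotinylated degenerate peptide sub-libraries. Each sub-library fixed one residue at one position around a central Ser/Thr. Incubations lasted 90 min with peptides at 50 μM and 50 μM ATP spiked with γ-32P-ATP, after which spots on streptavidin membranes were phosphorimaged and quantified by densitometry. Relative sub-library phosphorylation is a ratio to the mean residue at that position.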

Sequence of CLK4, construct: aa128-481, human (Q9HAZ1 128-481, looked up): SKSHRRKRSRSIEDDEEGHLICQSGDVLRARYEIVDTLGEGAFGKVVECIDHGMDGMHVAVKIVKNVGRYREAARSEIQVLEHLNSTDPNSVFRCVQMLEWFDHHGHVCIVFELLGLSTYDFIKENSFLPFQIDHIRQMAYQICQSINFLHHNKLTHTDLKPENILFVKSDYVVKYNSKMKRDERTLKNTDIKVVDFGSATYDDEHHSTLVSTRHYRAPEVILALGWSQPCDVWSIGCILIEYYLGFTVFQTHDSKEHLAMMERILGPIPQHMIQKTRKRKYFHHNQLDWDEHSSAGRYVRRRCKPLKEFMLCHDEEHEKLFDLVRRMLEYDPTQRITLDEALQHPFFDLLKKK
Sequence of LATS2, construct: aa553-end, human (Q9NRM7 553-1088, looked up): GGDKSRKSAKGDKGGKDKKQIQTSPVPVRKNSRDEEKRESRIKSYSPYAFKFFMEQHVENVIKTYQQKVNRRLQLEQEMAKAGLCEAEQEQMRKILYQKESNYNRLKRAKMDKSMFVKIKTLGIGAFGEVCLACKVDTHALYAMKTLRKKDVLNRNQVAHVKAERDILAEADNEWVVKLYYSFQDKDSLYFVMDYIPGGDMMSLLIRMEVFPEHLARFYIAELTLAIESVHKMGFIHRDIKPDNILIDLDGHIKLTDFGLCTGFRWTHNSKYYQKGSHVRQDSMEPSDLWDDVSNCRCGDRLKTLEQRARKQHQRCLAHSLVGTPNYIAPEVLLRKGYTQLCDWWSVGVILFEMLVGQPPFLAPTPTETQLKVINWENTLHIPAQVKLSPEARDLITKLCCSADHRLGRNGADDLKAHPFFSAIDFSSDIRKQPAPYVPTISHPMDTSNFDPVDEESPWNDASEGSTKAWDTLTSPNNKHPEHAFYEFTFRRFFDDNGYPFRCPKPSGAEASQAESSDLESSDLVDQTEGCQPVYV

LATS2, construct: aa553-end, human (from UniProt Q9NRM7)
relative phosphorylation
Conditions | at +1 | at +2 | at +3 | at +4 | at -1 | at -2 | at -3 | at -4 | at -5
A fixed | 0.577 | 1.11 | 0.859 | 0.703 | 0.693 | 0.789 | 0.766 | 1.15 | 0.615
D fixed | 0.89 | 2.94 | 1.47 | 1.4 | 0.702 | 0.901 | 0.465 | 0.649 | 0.475
E fixed | 0.953 | 0.932 | 1.36 | 1.49 | 0.516 | 1.27 | 0.352 | 0.739 | 0.308
F fixed | 1.29 | 0.699 | 0.846 | 0.865 | 0.483 | 0.764 | 0.415 | 0.981 | 0.672
G fixed | 0.876 | 1.53 | 1.54 | 1.27 | 0.994 | 1.13 | 0.769 | 1.15 | 0.706
H fixed | 0.995 | 1.27 | 1.2 | 1.31 | 1.07 | 1.43 | 1.66 | 1.36 | 6.2
I fixed | 1.16 | 0.853 | 0.778 | 0.671 | 0.331 | 0.321 | 0.242 | 0.49 | 0.308
K fixed | 0.821 | 0.357 | 0.868 | 0.756 | 2.74 | 1.03 | 2.4 | 1.27 | 1.12
L fixed | 1.12 | 0.862 | 0.825 | 0.661 | 0.699 | 0.393 | 0.297 | 0.587 | 0.458
M fixed | 1.49 | 0.841 | 0.875 | 1.07 | 0.71 | 0.91 | 0.36 | 0.92 | 0.439
N fixed | 1.42 | 1.01 | 1.03 | 1.28 | 1.12 | 1.64 | 0.784 | 0.925 | 0.607
P fixed | 0.328 | 0.794 | 1.04 | 1.33 | 2.39 | 0.766 | 1.48 | 1.34 | 0.682
Q fixed | 1.11 | 0.789 | 1.04 | 1.05 | 1.19 | 2.35 | 0.897 | 1.08 | 0.719
R fixed | 0.717 | 0.357 | 0.617 | 0.741 | 1.42 | 1.26 | 4.37 | 1.78 | 1.43
V fixed | 0.84 | 0.829 | 0.747 | 0.524 | 0.425 | 0.367 | 0.325 | 0.545 | 0.445
W fixed | 1.23 | 0.807 | 1.03 | 0.887 | 0.746 | 0.899 | 0.691 | 1.08 | 1.04
Y fixed | 1.18 | 1.02 | 0.874 | 0.996 | 0.779 | 0.782 | 0.734 | 0.966 | 0.776
pThr fixed | 1.08 | 0.655 | 0.925 | 1.55 | 0.287 | 0.456 | 0.441 | 0.552 | 0.349
pTyr fixed | 1.09 | 0.807 | 1.04 | 1.12 | 0.347 | 0.382 | 0.418 | 0.548 | 0.442

CLK4, construct: aa128-481, human (from UniProt Q9HAZ1)
relative phosphorylation
Conditions | at +1 | at +2 | at +3 | at +4 | at -1 | at -2 | at -3 | at -4 | at -5
A fixed | 0.617 | 1.09 | 0.764 | 0.712 | 0.792 | 1.63 | 0.609 | 0.923 | 0.926
D fixed | 0.293 | 0.989 | 0.691 | 1.07 | 0.403 | 0.553 | 0.453 | 0.649 | 0.735
E fixed | 0.565 | 0.943 | 0.592 | 1.1 | 0.48 | 1.52 | 0.374 | 0.721 | 0.595
F fixed | 0.435 | 0.928 | 0.771 | 0.91 | 0.705 | 0.337 | 0.327 | 0.858 | 1.39
G fixed | 0.628 | 1.04 | 0.925 | 0.889 | 0.975 | 0.943 | 0.553 | 1.09 | 1.02
H fixed | 0.7 | 1.28 | 1.1 | 1.06 | 1.18 | 0.546 | 0.709 | 0.979 | 1.05
I fixed | 1 | 0.795 | 0.61 | 0.869 | 0.55 | 0.343 | 0.332 | 0.857 | 0.786
K fixed | 0.807 | 1.36 | 2.5 | 1.26 | 2.09 | 0.978 | 2.16 | 1.72 | 1.47
L fixed | 0.784 | 0.877 | 0.731 | 0.8 | 0.935 | 0.461 | 0.394 | 0.781 | 0.891
M fixed | 0.727 | 0.837 | 0.717 | 1.02 | 1.04 | 0.443 | 0.429 | 0.884 | 0.69
N fixed | 0.498 | 0.804 | 0.822 | 0.935 | 0.865 | 0.42 | 0.476 | 0.807 | 0.881
P fixed | 5.64 | 1.21 | 2.04 | 0.901 | 1 | 0.453 | 0.405 | 0.806 | 0.909
Q fixed | 0.793 | 0.929 | 0.795 | 1.07 | 1.12 | 0.717 | 0.509 | 0.839 | 0.827
R fixed | 0.853 | 1.33 | 1.7 | 1.28 | 2.36 | 6.56 | 8.11 | 2.25 | 1.82
V fixed | 1.59 | 1.04 | 0.67 | 0.772 | 0.704 | 0.386 | 0.331 | 0.755 | 0.771
W fixed | 0.486 | 0.754 | 0.763 | 1.25 | 0.895 | 0.348 | 0.429 | 1.1 | 1.24
Y fixed | 0.574 | 0.792 | 0.8 | 1.1 | 0.89 | 0.356 | 0.399 | 0.973 | 1
pThr fixed | 0.796 | 1.92 | 0.773 | 2.01 | 0.343 | 0.467 | 0.603 | 0.846 | 0.81
pTyr fixed | 0.516 | 0.647 | 1.52 | 1.16 | 0.546 | 0.295 | 0.356 | 0.732 | 0.938
